The test has as its target soluble C-terminally truncated HAP2 ectodomain (HAP2e), residues 23-592, Chlamydomonas reinhardtii (Chlamydomonas reinhardtii) (UniProt A4GRC6). Briefly: SEC-MALS. In general terms: SEC sorts molecules by how far they enter the pores of the column.

Substance “soluble C-terminally truncated HAP2 ectodomain (HAP2e), residues 23-592, Chlamydomonas reinhardtii (from UniProt A4GRC6 23-592) (domain or fragment)” came in with a stoichiometry N of 6.

What is called stoichiometry N is a count of units in the complex or per binding partner.
